Test results published in the supplement of paper PMC9732359.
± gives the uncertainty stated by the source.

Assay: protein stability index of a GFP-peptide fusion (yeast GPS) (PSI 1-4); higher = more stable; sorted into four equal gates, so the index is relative within each strain
Details: san1∆
Method in brief: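 The protein stability index combines read frequencies across sorting gates, each weighted by its gate number and then summed. To obtain those frequencies, a pooled yeast library of GFP fusions to tiled 17-residue yeast protein peptides, on a plasmid also expressing Cherry, was grown to mid-log phase in leucine-free medium. The cells were sorted into four equal gates by GFP/Cherry ratio before plasmid amplification by PCR and Illumina sequencing.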
With GLELSNFKSYRGVTKVG [SMC1] the protein stability index was 2.55 ± 0.15. Sequence GLESQIQEIKESVELPL [RPT2] has a protein stability index of 2.48 ± 0.067. GLLDESPNRLRVRTDDS [YML031W/NDC1] showed a protein stability index of 1.67 ± 0.12. With GMKVKADRDESSPYAAM [RPS14B] the protein stability index was 1.14 ± 0.22. In the case of GMMSTTGTARLNSMPNN [YJL039C/NUP192], the protein stability index is reported as 3.1 ± 0.089. GMPHKFYQGKTGVVYNV [RPL21A] showed a protein stability index of 2.53 ± 0.078. GNASLKYIALQVIVDIF [YCG1] gave a protein stability index of 1.19 ± 0.12. Sequence GNDNNSDSNANAAVAGV [SWI3] has a protein stability index of 3.31 ± 0.029. With GNGNVSESDIINNLPPE [YCG1] the protein stability index was 2.95 ± 0.27. Sequence GNIQISEYNFLEGSVSL [DIS3] has a protein stability index of 3.05 ± 0.09. GNKKYRALRIETGNFSW [RPS8A] gave a protein stability index of 3.14 ± 0.036. GNMGITTEMLDKLMVTS [MED6] gave a protein stability index of 3.26 ± 0.068. Work on GNPLSIGTLEEIIDDDH [RPT2] yielded a protein stability index of 3.14 ± 0.076. For GNVFSPIDNNIIFASTK [SNU114], the protein stability index was 2.97 ± 0.052. Work on GNVLLNATVVDSFKYEP [YLR335W/NUP2] yielded a protein stability index of 3.05 ± 0.081. For GNVTELYGTAIGARSQG [PRE5], the protein stability index was 1.94 ± 0.071. Sequence GPGGQAALRALARSGLR [RPS14B] has a protein stability index of 2.22 ± 0.11. GPKKNVFYAPNVKNYST [RPC34] showed a protein stability index of 2.91 ± 0.056. For GPRNTEEKGWVPVTKLG [RPS2], the protein stability index was 3.61 ± 0.05. For GPVAAQFTKVIDEPIKS [FAS1], the protein stability index was 2.15 ± 0.14. GPVVAGINSKSGKPFIA [PUP3] showed a protein stability index of 2.99 ± 0.18. Sequence GQCRTELEGSFNKSAEL [YCS4] has a protein stability index of 2.6 ± 0.1. With GQLLSVKFLVYQGVYSM [YML031W/NDC1] the protein stability index was 1.48 ± 0.11. Sequence GQNCLDIDGIMDNPRKL [SNU114] has a protein stability index of 3.4 ± 0.092. Sequence GQRDLDRIAAQTLEEDE [RPS19A] has a protein stability index of 3.29 ± 0.1. GQSEASLLNLLNISPFT [RPP0] showed a protein stability index of 2.29 ± 0.085. GRAGVPMEVMGLMLGEF [RPN11] gave a protein stability index of 1.69 ± 0.18. Work on GRLLRAMFEICLKRGWG [BRR2] yielded a protein stability index of 1.76 ± 0.12. Sequence GRLNTLVISLAATNETF [IRR1] has a protein stability index of 1.1 ± 0.23. GRLSLRSLTAYAPNLML [QCR10] gave a protein stability index of 1.63 ± 0.081. Sequence GRRLNIRQYALATAHIY [SSN8] has a protein stability index of 1.17 ± 0.17. In the case of GRSDSNTEEKAELQSNL [YGL100W/SEH1], the protein stability index is reported as 1.4 ± 0.14. GRSRDGGLRFGEMERDC [RPB2] gave a protein stability index of 2.83 ± 0.17. Sequence GRVKYTKRQKHFAWLPT [POP1] has a protein stability index of 2.3 ± 0.084. With GSEILGDLKLQVLLDEE [RPO21] the protein stability index was 3.04 ± 0.14. In the case of GSFKVVKGTNISEKDLV [RPO31], the protein stability index is reported as 3.51 ± 0.044. Sequence GSIPSLTTQFVTDKYTA [YDL088C/ASM4] has a protein stability index of 2.46 ± 0.087. Work on GSKENYQELGSLQSSSQ [MED2] yielded a protein stability index of 3.27 ± 0.071. In the case of GSKIRVMWGKVTRTHGN [RPL33A], the protein stability index is reported as 2.76 ± 0.062. Work on GSNNAQTSRGLFGNNNT [YGL172W/NUP49] yielded a protein stability index of 3.14 ± 0.046. With GSQKTFEIDDEHRIRVF [RPS6A] the protein stability index was 1.97 ± 0.16. GSTFKVNQEFIFEAISL [YJL039C/NUP192] gave a protein stability index of 1.43 ± 0.15. With GTANNNSNTTNQNSSTG [YJL041W/NSP1] the protein stability index was 3.25 ± 0.042. In the case of GTCNGDITTSIMDNFLE [RPN1], the protein stability index is reported as 2.86 ± 0.056. GTFTADYSKPNLPPHYA [SSN2] showed a protein stability index of 2.16 ± 0.068. GTGLFGQQTAQPQQSTI [YGR119C/NUP57] showed a protein stability index of 2.85 ± 0.051. For GTLDKNSQTVSGTPITQ [SNF2], the protein stability index was 2.69 ± 0.052. GTLWAHVLKTVDYGGAE [SNU114] gave a protein stability index of 1.65 ± 0.16. For GTQQSNMYTSTQKTELE [SIR4], the protein stability index was 2.95 ± 0.048. In the case of GTYIQERNPSQRPQRRY [RPS10B], the protein stability index is reported as 3.09 ± 0.033. In the case of GVANTDTAGEESQQQDE [SWI3], the protein stability index is reported as 3.33 ± 0.062. GVDDQILATNSLRILAK [YJL039C/NUP192] gave a protein stability index of 3.12 ± 0.069. Sequence GWSLVGRILQNLLHSYM [YML103C/NUP188] has a protein stability index of 1.18 ± 0.092. In the case of GYDRHITIFSPEGRLYQ [SCL1], the protein stability index is reported as 2.96 ± 0.057. With GYFIINGSEKVLIAQER [RPB2] the protein stability index was 3.16 ± 0.18. For GYIKNNKKIYQWNKLTS [POP6], the protein stability index was 2.89 ± 0.072. GYRSRTRYMFQRDFRKH [RPL21A] gave a protein stability index of 3.16 ± 0.049. For GYVSSLVEPSKVGQFDQ [FAS1], the protein stability index was 1.72 ± 0.12. HAKFSPVSTASYRLLPQ [RPC40] gave a protein stability index of 1.84 ± 0.089. In the case of HANAAAVYFADTSGLKI [SIN4], the protein stability index is reported as 2.23 ± 0.073. In the case of HARTAAVTHNLYYDEDI [PUP2], the protein stability index is reported as 2.86 ± 0.23. HASKAIGLPRHSLAYLL [RRP6] gave a protein stability index of 2.37 ± 0.059. HAYRDVLAQYHEAKERI [SNF6] gave a protein stability index of 3.09 ± 0.059. With HDADLEVSMNSIFAMGL [RPN1] the protein stability index was 2.65 ± 0.047. In the case of HDEKSDSLNEWIKFDQE [RPN7], the protein stability index is reported as 3.27 ± 0.076. HEAKERIRQKEVTAGEA [SNF6] showed a protein stability index of 2.67 ± 0.25. HEDLVNSIESKNLSLQT [COR1] gave a protein stability index of 3.09 ± 0.083. In the case of HESTSRTDQYTIDNIDS [YMR129W/POM152], the protein stability index is reported as 2.9 ± 0.045. HFENAKVIDLDTKLKAH [YIL149C/MLP2] gave a protein stability index of 2.09 ± 0.11. HFFSKSCSFFAKLSDTL [NUT1] showed a protein stability index of 1.69 ± 0.085. For HFQDQKNKKIEVYTKTI [POP7], the protein stability index was 3.23 ± 0.084. In the case of HFVRDLGTIESAQAETE [DIS3], the protein stability index is reported as 2.85 ± 0.21. With HGDAAVLLVEKYGAEYD [NAS6] the protein stability index was 2.96 ± 0.22. Sequence HGGKMKPEIDENGTLLV [RPR2] has a protein stability index of 3.05 ± 0.075. In the case of HGTSTSAEDEENIIQRL [CDC53], the protein stability index is reported as 3.13 ± 0.044. Work on HHDYRSYYGIVCLMQIS [RRP6] yielded a protein stability index of 1.32 ± 0.12. HIEKLENEFVVLLDARD [CDC53] gave a protein stability index of 2.9 ± 0.14. Work on HILPEVPPVENFPVRQW [TAF14] yielded a protein stability index of 2.95 ± 0.073. HKCDELITLFNKGELET [RPO31] gave a protein stability index of 2.98 ± 0.094. Sequence HKHNIMKNENANPKKLA [CDC53] has a protein stability index of 2 ± 0.064. In the case of HKLRESLPLIVFLRNRL [RPS4A], the protein stability index is reported as 1.4 ± 0.1. With HKSIELISNLLFSKNRN [YCS4] the protein stability index was 2.52 ± 0.046. For HKTMSIVGVLQDDADPM [RPT2], the protein stability index was 1.58 ± 0.21. Sequence HKVQTKLTRELEKKFPD [RPS7B] has a protein stability index of 3.1 ± 0.058. HLKHENANDETTAVEDE [RPB4] showed a protein stability index of 3.17 ± 0.086. With HNQSPRNTYQSAMGKQA [RPB2] the protein stability index was 2.37 ± 0.06. For HPKLIKNKSGKIFVETK [FAS1], the protein stability index was 2.47 ± 0.13. Sequence HQNVIIGSNGSGKSNFF [SMC3] has a protein stability index of 2.84 ± 0.069. HSLREYINGKATALANL [RPO31] showed a protein stability index of 2.57 ± 0.088. Work on HTLCNRCGRRSFHVQKK [RPL37A] yielded a protein stability index of 2.83 ± 0.031. Work on HTQANEPNSAKKIRFLQ [RGR1] yielded a protein stability index of 3.12 ± 0.22. With HVFQYANRPRLVGRKPA [RPC37] the protein stability index was 2.28 ± 0.28. Work on HYDNTTRNSLGNVIQFI [RPO21] yielded a protein stability index of 2.87 ± 0.034. IAASAFLSLLNLATKGM [REC8] showed a protein stability index of 1.71 ± 0.1. Sequence IAKSQDKKSCSVDDVLS [DPB4] has a protein stability index of 3.22 ± 0.055. With IATDGGRICRPLIIVSD [RET1] the protein stability index was 1.73 ± 0.06. For ICIVGGYDDFQEEGSFE [FAS2], the protein stability index was 3.5 ± 0.1. Sequence ICKNCSAILLSETDKRQ [RPO31] has a protein stability index of 2.81 ± 0.068. ICNTLNIAKDLKWKKGI [SMC1] showed a protein stability index of 1.45 ± 0.17.

Same assay, conditions: ubr1∆
GLELSNFKSYRGVTKVG [SMC1] gave a protein stability index of 2.45 ± 0.12.
